How the values were obtained:
[1] = molecular target: T1, Human B7-H4 on the cell surface (MX-1, HCC1569, CAMA-1 cells); HEK-293 cells stably transfected with human … (human, UniProt Q7Z7D3 25-282); test: flow cytometry, MX-1 cells
T1 construct: The cell line of each result is named under assay or readout; also called cell surface B7-H4
T1 sequence: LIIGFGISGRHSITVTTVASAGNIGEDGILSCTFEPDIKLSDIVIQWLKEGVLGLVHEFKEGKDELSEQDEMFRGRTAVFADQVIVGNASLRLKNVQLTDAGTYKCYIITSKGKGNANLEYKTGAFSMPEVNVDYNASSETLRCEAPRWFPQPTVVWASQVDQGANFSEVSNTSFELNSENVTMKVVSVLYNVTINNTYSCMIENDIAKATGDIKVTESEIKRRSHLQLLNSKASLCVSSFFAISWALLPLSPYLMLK

[2] = molecular target: T2, Recombinant human B7-H4 protein (R&D Systems #6576-B7-050) (human, UniProt Q7Z7D3 29-258); test: ELISA, coated recombinant human B7-H4
T2 construct: Bought protein
T2 sequence: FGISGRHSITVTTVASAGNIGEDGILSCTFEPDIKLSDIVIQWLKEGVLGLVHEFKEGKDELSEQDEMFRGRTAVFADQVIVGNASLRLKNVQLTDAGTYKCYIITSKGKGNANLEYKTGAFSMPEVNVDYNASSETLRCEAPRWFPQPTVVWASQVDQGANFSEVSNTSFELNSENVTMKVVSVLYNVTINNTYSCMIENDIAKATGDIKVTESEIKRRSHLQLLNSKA

[3] = molecular target: T2, Recombinant human B7-H4 protein (R&D …); test: ELISA, coated recombinant human B7-H4; remark: listed apart in the source
[4] = molecular target: T2, Recombinant human B7-H4 protein (R&D …); test: ELISA, coated recombinant human B7-H4; remark: listed apart in the source
[5] = molecular target: T3, Rat B7-H4 protein (R&D Systems 10085-B7) (rat, UniProt Q501W4 29-257, limits assumed); test: ELISA, coated rat B7-H4, mean of two studies
T3 construct: Bought protein
T3 sequence (looked up): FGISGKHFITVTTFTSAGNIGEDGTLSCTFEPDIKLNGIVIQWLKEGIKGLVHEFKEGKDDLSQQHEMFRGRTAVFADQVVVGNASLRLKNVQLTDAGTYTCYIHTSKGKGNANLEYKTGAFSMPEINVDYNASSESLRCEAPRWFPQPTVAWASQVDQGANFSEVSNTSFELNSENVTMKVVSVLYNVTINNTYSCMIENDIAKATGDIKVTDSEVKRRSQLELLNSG

[6] = molecular target: T2, Recombinant human B7-H4 protein (R&D …); test: ELISA, coated human B7-H4, mean of two studies
[7] = molecular target: T4, Mouse B7-H4 protein (Creative Biomart; VTCN1-1519R) (mouse, UniProt Q7TSP5 25-257); test: ELISA, coated mouse B7-H4, mean of two studies
T4 construct: Bought protein
T4 sequence (looked up): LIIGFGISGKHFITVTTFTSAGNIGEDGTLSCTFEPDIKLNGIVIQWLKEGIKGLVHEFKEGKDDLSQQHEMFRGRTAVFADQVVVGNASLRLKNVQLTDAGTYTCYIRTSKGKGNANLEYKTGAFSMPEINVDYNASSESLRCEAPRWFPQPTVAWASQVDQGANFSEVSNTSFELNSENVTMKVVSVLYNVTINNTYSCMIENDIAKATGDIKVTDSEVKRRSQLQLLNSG

[8] = molecular target: T5, Monkey B7-H4 protein (Creative Biomart; VTCN1-1519R) (monkey); test: ELISA, coated monkey B7-H4, mean of two studies
T5 construct: Bought protein

[9] = molecular target: T1, Human B7-H4 on the cell surface (MX-1, …); test: flow cytometry, MX-1 cells, mean of two experiments
[10] = molecular target: T1, Human B7-H4 on the cell surface (MX-1, …); test: flow cytometry, HEK-293 cells stably transfected with human B7-H4, mean of two experiments

B1: Palivizumab (antibody, V domains shown)
VH: QVTLRESGPALVKPTQTLTLTCTFSGFSLSTSGMSVGWIRQPPGKALEWLADIWWDDKKDYNPSLKSRLTISKDTSKNQVVLKVTNMDPADTATYYCARSMITNWYFDVWGAGTTVTVSS
VL: DIQMTQSPSTLSASVGDRVTITCKCQLSVGYMHWYQQKPGKAPKLLIYDTSKLASGVPSRFSGSGSGTEFTLTISSLQPDDFATYYCFQGSGYPFTFGGGTKLEIK
What does the source list for B1?
EC50 [1]: > 200 nM; EC50 [2]: > 100 nM; EC50 [3]: > 100 nM; EC50 [4]: > 100 nM; EC50 [5]: > 100 nM; EC50 [6]: > 100 nM; EC50 [7]: > 100 nM; EC50 [8]: > 100 nM; EC50 [9]: > 100 nM; EC50 [10]: > 100 nM
